This note sets out measurements from patent publication US20220033515A1 (Genentech, published 2022).

One may read the IC50 as the concentration needed to halve the response being measured. Lower therefore signals greater potency in that assay. The term Kd denotes the equilibrium constant for the complex coming apart. The low end stands for higher affinity, the high end for lower affinity. The term koff denotes the first-order rate constant of dissociation. A word on the kon: it is a measure of how fast the partners come together. Higher therefore signals fast association.

Where a chain is given by its changes, count along the chain named. Values joined by “and” are separate entries in the source; they are usually repeats but may differ in a detail not shown here. Equal values may be shown once. Read-outs that look alike come from different tables or passages of the source.

For test [1], the target named is T1, HER2 extracellular domain (Her2-ECD) (human, UniProt P04626 23-652).
T1 construct: extracellular domain; also called hHER2 extracellular domain (ECD)
Kind of test: competitive phage ELISA. (In an ELISA, binding on a coated surface is turned into a signal by an enzyme label.)

Test [2] deals with T2, human death receptor 5 (hDR5) (human, UniProt O14763 56-210).
T2 construct: also called DR5 long; hDR5-1f
Kind of test: equilibrium KD; method and format (Fab or IgG) not given.

The target in test [3] is T1, HER2 extracellular domain (Her2-ECD). The experiment in a line: equilibrium KD; method and format (Fab or IgG) not given; HER2, second number of the cell.
The target of test [4] is T3, hVEGF109 (human, UniProt P15692 214-315).
T3 construct: range 8-109; also called VEGF (8-109)
T3 sequence (looked up): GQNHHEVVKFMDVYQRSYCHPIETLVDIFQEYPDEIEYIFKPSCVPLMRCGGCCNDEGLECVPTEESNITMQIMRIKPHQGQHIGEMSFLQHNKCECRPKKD
The experiment in a line: ELISA on immobilised target.

Another test deals with T4, hVEGF165 (human, UniProt P15692-4 27-191).
T4 construct: also called human VEGF165
Kind of test: ELISA on immobilised target.

In a further test the target is T5, murine VEGF (mVEGF) (murine, UniProt Q00731-2 27-190).
T5 sequence (looked up): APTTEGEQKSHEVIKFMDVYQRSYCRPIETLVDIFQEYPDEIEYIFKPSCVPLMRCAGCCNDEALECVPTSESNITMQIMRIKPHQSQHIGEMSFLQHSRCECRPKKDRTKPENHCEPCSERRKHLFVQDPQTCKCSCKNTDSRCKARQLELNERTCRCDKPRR
The experiment in a line: ELISA on immobilised target.

Test [5] concerns the target T6, human vascular endothelial growth factor (hVEGF) (human, UniProt P15692-4 27-191).
T6 construct: also called hVEGF-A; human vascular endothelial growth factor A
Kind of test: ELISA on immobilised protein.

The target of test [6] is T1, HER2 extracellular domain (Her2-ECD). Kind of test: ELISA on immobilised protein.
Test [7] deals with T7, hVEGF-C (human, UniProt P49767 103-227).
T7 sequence (looked up): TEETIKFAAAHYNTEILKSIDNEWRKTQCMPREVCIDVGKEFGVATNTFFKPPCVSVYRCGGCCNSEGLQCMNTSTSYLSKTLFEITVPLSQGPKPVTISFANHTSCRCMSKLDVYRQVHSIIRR
The experiment in a line: ELISA on immobilised protein.

Test [8] has as its target T8, hVEGF-D (human, UniProt O43915 93-201).
T8 sequence (looked up): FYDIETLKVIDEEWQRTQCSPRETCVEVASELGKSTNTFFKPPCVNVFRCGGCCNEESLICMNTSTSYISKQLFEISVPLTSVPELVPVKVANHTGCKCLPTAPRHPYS
Kind of test: ELISA on immobilised protein.

Test [9] addresses T9, epidermal growth factor receptor extracellular domain (hEGFR) (human, UniProt P00533 25-645).
T9 construct: extracellular domain
The experiment in a line: ELISA on immobilised protein.

For test [10], the target named is bovine serum albumin (BSA) (bovine, UniProt P02769 25-607). Kind of test: ELISA on immobilised protein.
For test [11], the target named is T1, HER2 extracellular domain (Her2-ECD). Kind of test: competitive phage ELISA. The source holds these as a separate data set.
For test [12] the target is unchanged. Kind of test: Biacore SPR. For orientation: Surface plasmon resonance follows binding to a sensor surface in real time, without labels.
For test [13], the target named is T3, hVEGF109. The experiment in a line: Biacore SPR, steady state analysis (* for kon and koff).
For test [14], the target named is T6, human vascular endothelial growth …. Kind of test: competitive phage ELISA.
Test [15] addresses T1, HER2 extracellular domain (Her2-ECD). The experiment in a line: competitive phage ELISA. The source holds these as a separate data set.
The target of test [16] is T3, hVEGF109. The experiment in a line: single-spot competitive phage ELISA.
The target of test [17] is T1, HER2 extracellular domain (Her2-ECD). The experiment in a line: single-spot competitive phage ELISA.
Test [18] has as its target T3, hVEGF109. The experiment in a line: Biacore SPR.
Test [19] deals with T2, human death receptor 5 (hDR5). Kind of test: ELISA on immobilised protein.
Test [20] concerns the target T6, human vascular endothelial growth …. The experiment in a line: equilibrium KD; method and format (Fab or IgG) not given.
Test [21] has as its target T7, hVEGF-C. Kind of test: ELISA on immobilised target.
The target of test [22] is T8, hVEGF-D. Kind of test: ELISA on immobilised target.
The target of test [23] is T9, epidermal growth factor receptor …. The experiment in a line: ELISA on immobilised target.

B1: bD1 (antibody, V domains shown)
VH: not shown
VL: DIQMTQSPSSLSASVGDRVTITCRASQNVSKHVAWYQQKPGKAPKLLIYWGSYLYSGVPSRFSGSGSGTDFTLTISSLQPEDFATYYCQQSYSGPPTFGQGTKVEIKR
B1 yielded a concentration for half-maximal inhibition (IC50) in test [1] of 30 nM. The Kd turned out to be 14000 nM in test [2] and 200 nM in [3].

B2: 4-1 IgG (antibody, V domains shown)
VH: not shown
VL: DIQMTQSPSSLSASVGDRVTITCRASQDIWNRRALAWYQQKPGKAPKLLIYEGSSLYSGVPSRFSGSGSGTDFTLTISSLQPEDFATYYCQQGGSYSSPPTFGQGTKVEIKR
notes: not shown: rest of the human IgG heavy chain constant region
For the molecule B2, the binding result with hVEGF109 [4] is “no binding (tested: 100 nM (text))”; with hVEGF165, “no binding (tested: 100 nM (text))”; in the test with murine VEGF (mVEGF), “no binding (tested: 100 nM (text))”; in [5] it was “no binding (tested: 100 or 500 nM (text))”; in test [6], “no binding (tested: 100 or 500 nM (text))”; with hVEGF-C [7], “no binding (tested: 100 or 500 nM (text))”. Also, the binding result (with hVEGF-D [8]; in [9]; in test [10]) was “no binding (tested: 100 or 500 nM (text))” in each case.

B3: bH1 (antibody, V domains shown)
VH: not shown
VL: DIQMTQSPSSLSASVGDRVTITCRASQDIPRSISGYVAWYQQKPGKAPKLLIYWGSYLYSGVPSRFSGSGSGTDFTLTISSLQPEDFATYYCQQHYTTPPTFGQGTKVEIKR
notes: also called anti-hVEGF/Her2 bi-specific antibody
The molecule B3 showed a 50% inhibitory concentration (IC50) in test [11] of 10 nM. Also, the Kd in [3] is 26 nM.

B4: H4_D (antibody, V domains shown)
VH: not shown
VL: DIQMTQSPSSLSASVGDRVTITCRASQDIRSGSVAWYQQKPGKAPKLLIYWGSYLYSGVPSRFSGSGSGTDFTLTISSLQPEDFATYYCQQHYTTPPTFGQGTKVEIK
notes: also called H4_D hIgG
B4: in test [12], the dissociation constant Kd amounted to 11 nM, the off-rate constant (koff) is 0.0012 s⁻¹ and the on-rate (kon) came out at 100000 M⁻¹ s⁻¹. In addition, the equilibrium dissociation constant (Kd) with hVEGF109 [13] was 2300 nM.

B5: 3-2 (scFv, V domains shown)
VH: not shown
VL: B4 VL with S31M, Y54V
B5: the 50% inhibitory concentration (IC50) in test [14] was above 1000 nM; in test [15], 1.56 nM.

B6: H4_N (antibody, V domains shown)
VH: not shown
VL: B4 VL with D28N, G52A
notes: also called H4_N hIgG; H4_N Fab
Take B6: in [12], the Kd is 10 nM and 6 nM; the off-rate constant (koff) came to 0.0013 s⁻¹; the kon is 140000 M⁻¹ s⁻¹ and 230000 M⁻¹ s⁻¹. Besides, the equilibrium dissociation constant (Kd) in the test with hVEGF109 [13] was determined as 550 nM.

B7: H5 (row of FIG.8a) (scFv, V domains shown)
VH: not shown
VL: B4 VL with S31G, W51G, H92Y
Consider B7, for which, in the test with hVEGF109 [16], the “% signal, SSC +/- 50nM Vegf” value was 88.8% and the OD450 without competitor came out at 2.77. The molecule further showed an OD450 without competitor in test [17] of 2.87.

B8: bD2 (antibody, V domains shown)
VH: not shown
VL: DIQMTQSPSSLSASVGDRVTITCRASQNIRNGGGLAWYQQKPGKAPKLLIYSASFLYSGVPSRFSGSGSGTDFTLTISSLQPEDFATYYCQQHYTTPPTFGQGTKVEIKR
The molecule B8 registered a 50% inhibitory concentration (IC50) in test [1] of 17 nM. The Kd amounted to 67000 nM in test [2] and 100 nM in test [3].

B9: 3-1 hIgG (antibody, V domains shown)
VH: not shown
VL: DIQMTQSPSSLSASVGDRVTITCRASQNVWDWVAWYQQKPGKAPKLLIYPASSLYSGVPSRFSGSGSGTDFTLTISSLQPEDFATYYCQQGWYIAPPTFGQGTKVEIKR
notes: as for B2
In the case of B9, the Kd with hVEGF109 [18] turned out to be 12 nM. The binding result (in [6]; in test [19]; in the test with hVEGF-C [7]; in the test with hVEGF-D [8]; in [9]; in [10]) was “no binding (tested: 100 or 500 nM (text))” throughout.

B10: 4-5 IgG (antibody, V domains shown)
VH: not shown
VL: DIQMTQSPSSLSASVGDRVTITCRASQNVGRPVAWYQQKPGKAPKLLIYGGSSLYSGVPSRFSGSGSGTDFTLTISSLQPEDFATYYCQQYGSFGTPPTFGQGTKVEIKR
notes: as for B2
Take B10: the binding result with hVEGF109 [4] is given as “no binding (tested: 100 nM (text))”; with hVEGF165, “no binding (tested: 100 nM (text))”; with murine VEGF (mVEGF), “no binding (tested: 100 nM (text))”; in [5], “no binding (tested: 100 or 500 nM (text))”; in test [6], “no binding (tested: 100 or 500 nM (text))”; in the test with hVEGF-C [7] it was “no binding (tested: 100 or 500 nM (text))”. For the same molecule, the binding result (with hVEGF-D [8]; in [9]; in test [10]) was “no binding (tested: 100 or 500 nM (text))” in each case.

B11: bH3 (antibody, V domains shown)
VH: not shown
VL: DIQMTQSPSSLSASVGDRVTITCRASQDIGLGSVAWYQQKPGKAPKLLIYWASYLYSGVPSRFSGSGSGTDFTLTISSLQPEDFATYYCQQHYTTPPTFGQGTKVEIKR
Regarding B11, the IC50 in test [11] is 2.6 nM. In [17], this molecule had an OD450 without competitor of 1.96. In addition, the Kd in test [20] turned out to be 19000 nM; in [3], 8 nM.

B12: H3 hIgG (antibody, V domains shown)
VH: not shown
VL: B11 VL
notes: also called bH3 IgG; not shown: rest of the human IgG heavy chain constant region
In [12], B12 registered a dissociation constant Kd of 20 nM. For the same molecule, the binding result is given as “no binding (tested: 100 nM (text))” with murine VEGF (mVEGF); “no binding (tested: 100 nM (text))” in the test with hVEGF-C [21]; “no binding (tested: 100 nM (text))” with hVEGF-D [22]; “no binding (tested: 100 nM (text))” in [23]; “no binding (tested: 100 or 500 nM (text))” in test [19]; “no binding (tested: 100 or 500 nM (text))” in test [10].
